Results reported in patent US11219221B2 (FarmHannong Co., Ltd., priority 2017, dated 2022).
Positions count from the first letter of the chain named. Names and notes keep the numbering of the source.

B1: V304M + F359I: CyPPO17 variant (protein)
chain: MEVDVAIVGGGLSGLSVAWRLQQSAPQYSGVLLEASDRLGGNITTQGAEGFVWELGPNSFAPTPALLQLIAEVGLHSELIRGDRHLPRYIYWRGELYPLEPTRPLALATSNLLSPWGKVRAALGALGFVPPYLGSGDESVNSFFRRHLGQEVAERLVAPFVSGVYAGDPQQLSAAAAFRRIAQLEKLGGGLIAGALRLRRQQPPKPRPPAEVQMRPGELGSFKEGLAALPRAIAQQLKAPVHLQTPVEAITPEPNGGYLLRSGEQTWQARSVVLATPAYQTAALVAPFQPAIARVLAAIPYPTMACVVLAYPAGLGRSVRPGFGVLIPRGQGIRTLGTIWSSCLFPQRTPAGWQVFTSIIGGATDPDLASLREEAIVQQVQQDLTRLLDLPAAKARLLGMKVWRRAIPQYLVGYPQQWQQVTHALSQTPGLFLCSNYAEGVALGDRVEHGNRTAAAVAAYLSGGQS
modifications: Synthetic (Protoporphyrinogen IX oxidase (CyPPO17) of Thermosynechococcus sp. NK55a)
notes: CyPPO17 variant
B2: V164C + A166L + V304M + L326T + F359M: CyPPO17 variant (protein)
chain: B1 chain with V164C, A166L, L326T, I359M
modifications: Synthetic (Protoporphyrinogen IX oxidase (CyPPO17) of Thermosynechococcus sp. NK55a)
notes: CyPPO17 variant
B3: V164C + A166L + L326T + F359M: CyPPO17 variant (protein)
chain: B1 chain with V164C, A166L, M304V, L326T, I359M
modifications: Synthetic (Protoporphyrinogen IX oxidase (CyPPO17) of Thermosynechococcus sp. NK55a)
notes: CyPPO17 variant
B4: R88A + V164C + A166L + L326T + F359M: CyPPO17 variant (protein)
chain: B1 chain with R88A, V164C, A166L, M304V, L326T, I359M
modifications: Synthetic (Protoporphyrinogen IX oxidase (CyPPO17) of Thermosynechococcus sp. NK55a)
notes: CyPPO17 variant
B5: V304M + L326T + F359M: CyPPO17 variant (protein)
chain: B1 chain with L326T, I359M
modifications: Synthetic (Protoporphyrinogen IX oxidase (CyPPO17) of Thermosynechococcus sp. NK55a)
notes: CyPPO17 variant
B6: R88A + V164C + A166C + V304M + L326T + F359M: CyPPO17 variant (protein)
chain: B1 chain with R88A, V164C, A166C, L326T, I359M
modifications: Synthetic (Protoporphyrinogen IX oxidase (CyPPO17) of Thermosynechococcus sp. NK55a)
notes: CyPPO17 variant

Tested on: CyPPO17
Assay: Herbicide tolerance test of CyPPO17 wild type and variants in PPO-deficient E. coli BT3(ΔPPO)
Assay type: cell-based, Thermosynechococcus sp. NK55a
Details: BT3(ΔPPO) transformants, two or more amino acid mutations, dark; for Herbicide tolerance, tiafenacil: 37° C., 16 to 20 hours, relative to wild type at highest concentration (50, 200 μM); for Herbicide tolerance, flumioxazin: relative to wild type at highest concentration (100, 200 μM); for Herbicide tolerance, sulfentrazone: relative to wild type at highest concentration (200, 400 μM)
Experimental: The mutated CyPPO gene obtained from the Example 2 was transformed to BT3 (ΔPPO) strain which is deficient of PPO activity and cultured in LB media with PPO-inhibiting herbicide, thereby examining whether growth of transformed BT3 was not inhibited.
BT3 competent cells were transformed with the pET303-CyPPO16 and pET303-CyPPO17 plasmids and those with a mutation(s) constructed in Example 2 respectively, and were cultured in LB agar media containing carbenicillin (Gold Biotechnology, Co., Ltd.).
Single colony of E. coli transformed with each CyPPO gene was cultured in 3 ml of LB broth containing carbenicillin overnight, and then was subcultured until absorbance (0D600) reached 0.5 to 1. Then, it was diluted with LB broth to OD600=0.5. Again, the diluted solution was serially diluted 4 times by a factor of one tenth.
The LB agar media (LB 25 g/l, Bacto agar 15 g/l) containing carbenicillin (100 μg/ml) and 0 to 4,000 μM of various herbicides dissolved in DMSO was prepared. Next, 10 μl of each diluted solution was dropped on the plate and cultured at 37° C. under light (Tables 7 and 9, FIGS. 2 to 6, and 18 to 22) or dark (Tables 8 and 10, FIGS. 7 to 17, and 23 to 33) for 16 to 20 hours. Then, extent of tolerance was evaluated.
The extent of herbicide tolerance of the mutated genes was evaluated by comparing that of mutated genes with that of wild type. The relative tolerance was represented with “+” as a factor of 10 times. Evaluation result was listed in Tables 7 to10 and FIGS. 2 to 33:
In Tables 7 to 10, tolerance level was presented as of tolerance of wild type and of variants equivalent to that of wild type, and was done as ‘+’ per each 10 fold resistance until ‘+++++’ as maximal resistance. (Tolerance level was evaluated by relative growth level of variants to that of wild type in the media containing highest concentration of herbicide; ‘+’=1-9 fold higher tolerance, ‘++’=10-99 fold higher tolerance, ‘+++’=100-999 fold higher tolerance, ‘++++’=1,000-9,999 fold higher tolerance, ‘+++++’=more than 10,000 fold higher tolerance)
The concentrations of herbicides were written above the photographs of tolerance test. A dilution series (0D600=0.5, 0.05, 0.005, 0.0005, 0.00005) was made and spotted on LB agar plates supplemented with herbicides.

Row | Molecule | Herbicide tolerance, tiafenacil | Herbicide tolerance, flumioxazin | Herbicide tolerance, sulfentrazone
1 | B1 | +++ (‘+++’=100-999 fold higher tolerance) | +++ (‘+++’=100-999 fold higher tolerance) | ++ (‘++’=10-99 fold higher tolerance)
2 | B2 | +++++ (‘+++++’=more than 10,000 fold higher tolerance) | +++++ (‘+++++’=more than 10,000 fold higher tolerance) | ++++ (‘++++’=1,000-9,999 fold higher tolerance)
3 | B3 | +++++ (‘+++++’=more than 10,000 fold higher tolerance) | +++++ (‘+++++’=more than 10,000 fold higher tolerance) | ++++ (‘++++’=1,000-9,999 fold higher tolerance)
4 | B4 | +++++ (‘+++++’=more than 10,000 fold higher tolerance) | +++++ (‘+++++’=more than 10,000 fold higher tolerance) | ++++ (‘++++’=1,000-9,999 fold higher tolerance)
5 | B5 | ++++ (‘++++’=1,000-9,999 fold higher tolerance) | ++++ (‘++++’=1,000-9,999 fold higher tolerance) | +++ (‘+++’=100-999 fold higher tolerance)
6 | B6 | +++++ (‘+++++’=more than 10,000 fold higher tolerance) | +++++ (‘+++++’=more than 10,000 fold higher tolerance) | ++++ (‘++++’=1,000-9,999 fold higher tolerance)
